Reference: patent US20200085917A1

Assays:
Test in all cases: GST pull-down, LC-MS/MS
[1] = target: Tuba4a_IPI:IPI00117350.1 (mouse) (UniProt P68368)
[2] = target: T1, Atp5f1_IPI:IPI00341282.2 (mouse) (UniProt Q9CQQ7)
T1 sequence (looked up): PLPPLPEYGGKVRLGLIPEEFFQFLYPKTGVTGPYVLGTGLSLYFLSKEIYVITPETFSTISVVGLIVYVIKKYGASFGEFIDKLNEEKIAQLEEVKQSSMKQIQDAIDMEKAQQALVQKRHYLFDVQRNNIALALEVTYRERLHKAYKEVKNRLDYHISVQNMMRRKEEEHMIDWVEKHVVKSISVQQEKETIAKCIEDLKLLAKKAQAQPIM

[3] = target: T2, Pfn2_IPI:IPI00227805.6 (mouse) (UniProt Q9JJV2)
T2 sequence (looked up): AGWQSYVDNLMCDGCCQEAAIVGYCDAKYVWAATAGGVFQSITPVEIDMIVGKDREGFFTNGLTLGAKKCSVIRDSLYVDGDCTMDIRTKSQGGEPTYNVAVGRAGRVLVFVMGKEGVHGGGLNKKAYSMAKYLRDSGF

[4] = target: T3, Hmgcl_IPI:IPI00127625.1 (mouse) (UniProt P38060)
T3 sequence (looked up): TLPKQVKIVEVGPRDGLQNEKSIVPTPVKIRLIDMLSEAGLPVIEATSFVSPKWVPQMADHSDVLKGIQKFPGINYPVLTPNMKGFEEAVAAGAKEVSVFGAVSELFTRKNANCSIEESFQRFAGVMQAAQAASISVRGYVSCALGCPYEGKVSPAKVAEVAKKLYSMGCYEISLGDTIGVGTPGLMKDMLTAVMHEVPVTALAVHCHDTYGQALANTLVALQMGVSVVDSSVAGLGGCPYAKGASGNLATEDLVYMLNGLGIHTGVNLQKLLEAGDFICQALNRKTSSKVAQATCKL

[5] = target: T4, Gbas_IPI:IPI00115827.1 (mouse) (UniProt O55126)
T4 sequence (looked up): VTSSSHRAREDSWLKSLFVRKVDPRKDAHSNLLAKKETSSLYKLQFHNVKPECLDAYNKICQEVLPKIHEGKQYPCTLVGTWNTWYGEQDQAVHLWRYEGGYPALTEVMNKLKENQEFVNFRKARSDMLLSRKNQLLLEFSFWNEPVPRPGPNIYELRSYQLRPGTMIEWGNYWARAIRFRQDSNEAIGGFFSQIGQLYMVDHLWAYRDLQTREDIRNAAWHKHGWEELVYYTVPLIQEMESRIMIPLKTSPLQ

[6] = target: Tomm20_IPI:IPI00120715.1 (mouse) (UniProt Q9DCC8)
[7] = target: Slc25a1_IPI:IPI00276926.3 (mouse) (UniProt Q8JZU2)
[8] = target: T5, Acsl6_IPI:IPI00123390.8 (mouse) (UniProt Q91WC3)
T5 sequence (looked up): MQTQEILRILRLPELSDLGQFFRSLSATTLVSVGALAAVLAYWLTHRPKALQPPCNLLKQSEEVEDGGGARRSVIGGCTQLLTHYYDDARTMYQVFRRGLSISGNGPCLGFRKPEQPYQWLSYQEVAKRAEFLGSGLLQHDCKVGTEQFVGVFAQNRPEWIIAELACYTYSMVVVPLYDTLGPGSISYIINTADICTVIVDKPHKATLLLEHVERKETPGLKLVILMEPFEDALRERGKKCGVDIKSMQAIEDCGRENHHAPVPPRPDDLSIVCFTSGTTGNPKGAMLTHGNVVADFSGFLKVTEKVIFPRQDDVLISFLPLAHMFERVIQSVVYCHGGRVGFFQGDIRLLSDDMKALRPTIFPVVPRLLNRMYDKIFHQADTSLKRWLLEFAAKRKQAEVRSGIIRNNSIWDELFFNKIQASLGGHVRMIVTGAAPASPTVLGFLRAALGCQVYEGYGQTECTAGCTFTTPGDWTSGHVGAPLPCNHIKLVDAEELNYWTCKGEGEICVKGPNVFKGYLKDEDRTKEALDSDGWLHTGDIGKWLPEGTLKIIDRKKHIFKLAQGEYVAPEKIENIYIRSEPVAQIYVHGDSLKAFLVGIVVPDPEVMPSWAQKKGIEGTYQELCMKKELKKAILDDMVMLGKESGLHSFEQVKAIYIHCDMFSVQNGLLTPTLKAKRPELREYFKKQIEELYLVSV

[9] = target: mt-Co2_IPI:IPI00131176.1 (mouse) (UniProt P00405)
[10] = target: Loh12cr1_IPI:IPI00457620.2 (mouse)
[11] = target: T6, Cplx2_IPI:IPI00111501.1 (mouse) (UniProt P84086)
T6 sequence (looked up): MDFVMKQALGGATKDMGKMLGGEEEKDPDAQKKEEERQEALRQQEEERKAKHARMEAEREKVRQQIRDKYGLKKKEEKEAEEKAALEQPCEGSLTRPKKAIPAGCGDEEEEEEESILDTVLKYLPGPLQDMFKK

[12] = target: Ndufb5_IPI:IPI00132531.1 (mouse) (UniProt Q9CQH3)
[13] = target: Hspa9_IPI:IPI00880839.1 (mouse) (UniProt P38647)
[14] = target: T7, Syngr3_IPI:IPI00331579.1 (mouse) (UniProt Q8R191)
T7 sequence (looked up): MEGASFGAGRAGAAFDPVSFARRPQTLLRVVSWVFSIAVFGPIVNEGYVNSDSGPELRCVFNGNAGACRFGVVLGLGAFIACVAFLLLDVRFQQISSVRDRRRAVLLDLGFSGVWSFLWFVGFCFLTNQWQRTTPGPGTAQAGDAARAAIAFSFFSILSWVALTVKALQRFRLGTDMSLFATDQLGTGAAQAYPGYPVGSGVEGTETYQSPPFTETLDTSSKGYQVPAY

Chain of Tomm20_IPI:IPI00120715.1 (mouse) (Q9DCC8 whole entry): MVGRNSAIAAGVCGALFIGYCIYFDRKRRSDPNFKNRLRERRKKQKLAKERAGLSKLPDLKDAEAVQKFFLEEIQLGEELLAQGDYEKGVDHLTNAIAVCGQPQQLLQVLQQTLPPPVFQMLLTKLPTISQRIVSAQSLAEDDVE
Chain of GST-Httex1-23Q (P08515 1-218, tags or fused parts left off): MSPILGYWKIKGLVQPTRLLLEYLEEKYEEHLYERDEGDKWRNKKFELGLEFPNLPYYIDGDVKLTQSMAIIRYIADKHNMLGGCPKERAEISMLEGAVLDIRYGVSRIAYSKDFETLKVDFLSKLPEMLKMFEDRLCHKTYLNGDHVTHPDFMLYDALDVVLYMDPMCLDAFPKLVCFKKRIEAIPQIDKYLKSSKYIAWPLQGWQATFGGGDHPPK
Chain of mt-Co2_IPI:IPI00131176.1 (mouse) (P00405 whole entry): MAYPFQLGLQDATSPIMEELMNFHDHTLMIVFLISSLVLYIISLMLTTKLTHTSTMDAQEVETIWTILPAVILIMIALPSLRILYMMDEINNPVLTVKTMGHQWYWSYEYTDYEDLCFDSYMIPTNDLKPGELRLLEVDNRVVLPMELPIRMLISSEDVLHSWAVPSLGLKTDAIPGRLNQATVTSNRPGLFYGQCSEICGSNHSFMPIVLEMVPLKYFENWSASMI
Chain of Slc25a1_IPI:IPI00276926.3 (mouse) (Q8JZU2 14-311 limits assumed): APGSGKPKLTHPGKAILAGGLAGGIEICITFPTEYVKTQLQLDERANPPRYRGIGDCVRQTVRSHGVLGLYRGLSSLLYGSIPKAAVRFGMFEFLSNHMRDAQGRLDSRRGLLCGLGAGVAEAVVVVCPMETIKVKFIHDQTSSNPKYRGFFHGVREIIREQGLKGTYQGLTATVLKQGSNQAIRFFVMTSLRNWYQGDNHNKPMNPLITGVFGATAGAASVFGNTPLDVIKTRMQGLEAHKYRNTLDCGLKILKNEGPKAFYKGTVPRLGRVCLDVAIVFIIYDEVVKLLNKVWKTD
Chain of Ndufb5_IPI:IPI00132531.1 (mouse) (Q9CQH3 47-189 limits assumed): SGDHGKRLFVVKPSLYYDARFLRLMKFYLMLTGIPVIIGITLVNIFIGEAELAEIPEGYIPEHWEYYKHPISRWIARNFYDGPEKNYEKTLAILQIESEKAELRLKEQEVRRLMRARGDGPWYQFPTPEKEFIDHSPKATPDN
Chain of Hspa9_IPI:IPI00880839.1 (mouse) (P38647 47-679 limits assumed): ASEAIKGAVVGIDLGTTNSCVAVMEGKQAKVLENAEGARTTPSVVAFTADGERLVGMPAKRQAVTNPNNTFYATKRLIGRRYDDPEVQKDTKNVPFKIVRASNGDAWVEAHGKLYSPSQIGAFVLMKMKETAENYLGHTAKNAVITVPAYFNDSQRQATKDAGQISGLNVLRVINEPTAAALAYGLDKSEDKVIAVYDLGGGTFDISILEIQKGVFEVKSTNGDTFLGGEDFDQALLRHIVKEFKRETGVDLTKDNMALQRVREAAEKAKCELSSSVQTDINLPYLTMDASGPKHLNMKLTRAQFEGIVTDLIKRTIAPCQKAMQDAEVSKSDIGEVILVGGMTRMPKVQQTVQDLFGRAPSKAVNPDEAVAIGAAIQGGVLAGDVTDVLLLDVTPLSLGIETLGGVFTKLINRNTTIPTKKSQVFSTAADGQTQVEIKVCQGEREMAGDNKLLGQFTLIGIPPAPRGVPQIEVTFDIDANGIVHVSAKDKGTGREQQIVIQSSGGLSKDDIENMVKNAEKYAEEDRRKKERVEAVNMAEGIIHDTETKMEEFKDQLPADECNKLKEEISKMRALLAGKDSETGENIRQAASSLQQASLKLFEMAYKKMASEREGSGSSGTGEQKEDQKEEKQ
Chain of Tuba4a_IPI:IPI00117350.1 (mouse) (P68368 whole entry): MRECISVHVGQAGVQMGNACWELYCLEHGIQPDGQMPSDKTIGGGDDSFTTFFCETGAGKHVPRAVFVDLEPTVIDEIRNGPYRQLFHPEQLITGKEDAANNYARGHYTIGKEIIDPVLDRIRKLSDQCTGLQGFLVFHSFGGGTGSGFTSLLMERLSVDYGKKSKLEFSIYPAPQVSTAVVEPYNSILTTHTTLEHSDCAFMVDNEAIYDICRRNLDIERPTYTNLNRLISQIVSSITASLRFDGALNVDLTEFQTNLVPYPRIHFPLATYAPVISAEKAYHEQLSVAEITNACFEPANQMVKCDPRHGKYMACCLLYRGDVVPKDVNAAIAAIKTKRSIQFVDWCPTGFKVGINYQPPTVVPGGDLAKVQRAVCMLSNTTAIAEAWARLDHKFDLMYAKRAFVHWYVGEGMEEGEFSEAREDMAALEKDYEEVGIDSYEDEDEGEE

Substance	No. of total peptides [1] [peptides]	No. of unique peptides [1] [peptides]	No. of total peptides [2] [peptides]	No. of unique peptides [2] [peptides]	No. of total peptides [3] [peptides]	No. of unique peptides [3] [peptides]	No. of total peptides [4] [peptides]	No. of unique peptides [4] [peptides]	No. of total peptides [5] [peptides]	No. of unique peptides [5] [peptides]	No. of total peptides [6] [peptides]	No. of unique peptides [6] [peptides]	No. of total peptides [7] [peptides]	No. of unique peptides [7] [peptides]	No. of total peptides [8] [peptides]	No. of unique peptides [8] [peptides]	No. of total peptides [9] [peptides]	No. of unique peptides [9] [peptides]	No. of total peptides [10] [peptides]	No. of unique peptides [10] [peptides]	also measured
GST-Httex1-23Q (from UniProt P08515 1-218; P42858 1-88)	3	3	3	3	1	1	1	1	2	2	1	1	1	1	2	2	1	1	1	1	No. of total peptides [11]: 1 peptides; No. of unique peptides [11]: 1 peptides; No. of total peptides [12]: 1 peptides; No. of unique peptides [12]: 1 peptides; No. of total peptides [13]: 1 peptides; No. of unique peptides [13]: 1 peptides; No. of total peptides [14]: 1 peptides; No. of unique peptides [14]: 1 peptides
GST-Httex1-97Q (from UniProt P08515 1-218; P42858 1-88)	2	2	4	4	2	2	1	1	5	3	1	1	2	2	2	2	4	3	1	1	No. of total peptides [11]: 6 peptides; No. of unique peptides [11]: 5 peptides; No. of total peptides [12]: 1 peptides; No. of unique peptides [12]: 1 peptides; No. of total peptides [13]: 1 peptides; No. of unique peptides [13]: 1 peptides; No. of total peptides [14]: 2 peptides; No. of unique peptides [14]: 2 peptides
